The values that follow come from paper PMC10057847, “Precision engineering of biological function with large-scale measurements and machine learning” (PLOS ONE, 2023).

Usually EC50 stands for the midpoint of the concentration-response curve.

Values joined by “and” are separate entries in the source; they are usually repeats but may differ in a detail not shown here. Equal values may be shown once.

The experiment deals with eYFP under the control of the lactose operator (lacO). Nature of the experiment: in vivo dose-response curves of LacI variants to IPTG measured with flow cytometry (eYFP output), fit to the Hill equation. The format is cell-based, E. coli. As to conditions: for dose-response phenotype (in words): IPTG dose-response by flow cytometry; for geo_mean: geometric mean of the YFP signal measured by cytometry: clone A; for n: the Hill coefficient: IPTG dose-response; for log_g0: the base-10 logarithm of G0 (in MEF) / log_ginf: the base-10 logarithm of G∞ (in MEF): value is log10; for log_ginf: the base-10 logarithm of G∞ (in MEF): saturating output. As to the method:
Dose-response curves were measured with flow cytometry using E. coli MG1655Δlac transformed with variants of the pVER plasmid, described previously. The plasmid contained different variants of the lacI coding DNA sequence (CDS), as described in the text, and an expression cassette with enhanced yellow fluorescent protein (eYFP) under the control of the lactose operator (lacO). The lacI CDS was verified with Sanger sequencing for each variant.
All cultures were grown in a rich M9 media (3 g/L KH2PO4, 6.78 g/L Na2HPO4, 0.5 g/L NaCl, 1 g/L NH4Cl, 0.1 mmol/L CaCl2, 2 mmol/L MgSO4, 4% glycerol, and 20 g/L casamino acids) supplemented with 50 μg/mL kanamycin.
For flow cytometry measurements, E. coli cultures were grown in a laboratory automation system that included an automated liquid handler (Hamilton, STAR), an automated plate sealer (4titude, a4S), an automated de-sealer (Brooks, XPeel), and two multi-mode plate readers (BioTek, Neo2SM).
Cultures were grown in clear polystyrene 96-well plates with 1.1 mL square wells (4titude, 4ti-0255). The culture volume per well was 0.5 mL. Before incubation, each 96-well growth plate was sealed by the automated plate sealer with a gas permeable membrane (4titude, 4ti-0598). Growth plates were incubated in one of the multi-mode plate readers at 37°C with a 1°C gradient applied from the bottom to the top of the incubation chamber to minimize condensation on the inside of the membrane. The plate readers were set for double-orbital shaking at 807 cycles per minute. Optical density at 600 nm (OD600) was measured every 5 minutes during incubation, with continuous shaking applied between measurements (optical density at 700 nm and YFP fluorescence were also measured every 5 minutes). After incubation, the automated de-sealer was used to remove the gas-permeable membrane from each 96-well plate to enable automated passaging of cultures and sample preparation for flow cytometry measurements.
For each measurement, starter cultures were prepared from glycerol freezer stock in 5 mL of rich M9 media in a 14 mL snap-cap culture tubes. Starter cultures were incubated at 37°C with orbital shaking at 300 rpm for between 4 h and 24 h prior to loading the automation system. The automation system then prepared 96-well growth plates, sealed and de-sealed the growth plates, incubated the growth plates, and prepared flow cytometry sample plates. The automated culture protocol consisted of the following steps: […]

Where [1] appears, read: basal output, Hill fit of cytometry data, posterior mean.
The mark [2] stands for this setting: Hill fit of cytometry data, posterior mean.

B1: pVER-IPTG-WT(Q181H): LacI variant: Q181H (protein, UniProt P03023 1-360, looked up, variant Q181H)
Lactose operon repressor: MKPVTLYDVAEYAGVSYQTVSRVVNQASHVSAKTREKVEAAMAELNYIPNRVAQQLAGKQSLLIGVATSSLALHAPSQIVAAIKSRADQLGASVVVSMVERSGVEACKAAVHNLLAQRVSGLIINYPLDDQDAIAVEAACTNVPALFLDVSDQTPINSIIFSHEDGTRLGVEHLVALGHQHIALLAGPLSSVSARLRLAGWHKYLTRNQIQPIAEREGDWSAMSGFQQTMQMLNEGIVPTAMLVANDQMALGAMRAITESGLRVGADISVVGYDDTEDSSCYIPPLTTIKQDFRLLGQTSVDRLLQLSQGQAVKGNQLLPVSLVKRKTTLAPNTQTASPRALADSLMQLARQVSRLESGQ
On to B1, for which the “dose-response phenotype (in words)” value is recorded as “silent in wild-type background”.

B2: pVER-IPTG-WT(Q231R): LacI variant: Q231R (protein, UniProt P03023 1-360, looked up, variant Q231R)
Lactose operon repressor: MKPVTLYDVAEYAGVSYQTVSRVVNQASHVSAKTREKVEAAMAELNYIPNRVAQQLAGKQSLLIGVATSSLALHAPSQIVAAIKSRADQLGASVVVSMVERSGVEACKAAVHNLLAQRVSGLIINYPLDDQDAIAVEAACTNVPALFLDVSDQTPINSIIFSHEDGTRLGVEHLVALGHQQIALLAGPLSSVSARLRLAGWHKYLTRNQIQPIAEREGDWSAMSGFQQTMRMLNEGIVPTAMLVANDQMALGAMRAITESGLRVGADISVVGYDDTEDSSCYIPPLTTIKQDFRLLGQTSVDRLLQLSQGQAVKGNQLLPVSLVKRKTTLAPNTQTASPRALADSLMQLARQVSRLESGQ
Take B2: the “dose-response phenotype (in words)” value is “silent in wild-type background”.

B3: pVER-IPTG-001: LacI variant: Q55H D130E V192A T258I D267N Y273H N333I (protein, UniProt P03023 1-360, looked up, variant Q55H D130E V192A T258I D267N Y273H N333I)
Lactose operon repressor: MKPVTLYDVAEYAGVSYQTVSRVVNQASHVSAKTREKVEAAMAELNYIPNRVAQHLAGKQSLLIGVATSSLALHAPSQIVAAIKSRADQLGASVVVSMVERSGVEACKAAVHNLLAQRVSGLIINYPLDEQDAIAVEAACTNVPALFLDVSDQTPINSIIFSHEDGTRLGVEHLVALGHQQIALLAGPLSSASARLRLAGWHKYLTRNQIQPIAEREGDWSAMSGFQQTMQMLNEGIVPTAMLVANDQMALGAMRAIIESGLRVGANISVVGHDDTEDSSCYIPPLTTIKQDFRLLGQTSVDRLLQLSQGQAVKGNQLLPVSLVKRKTTLAPITQTASPRALADSLMQLARQVSRLESGQ
As for B3, the “geo_mean: geometric mean of the YFP signal measured by cytometry” value runs as follows: (IPTG 0.0 μmol/L) 26059.303161112988 and 23664.3303473106; (IPTG 2.0 μmol/L) 26140.44981266789; (IPTG 4.0 μmol/L) 26093.69376618197; (IPTG 8.0 μmol/L) 26130.45714766927.

B4: pVER-IPTG-WT(V136E): LacI variant: V136E (protein, UniProt P03023 1-360, looked up, variant V136E)
Lactose operon repressor: MKPVTLYDVAEYAGVSYQTVSRVVNQASHVSAKTREKVEAAMAELNYIPNRVAQQLAGKQSLLIGVATSSLALHAPSQIVAAIKSRADQLGASVVVSMVERSGVEACKAAVHNLLAQRVSGLIINYPLDDQDAIAEEAACTNVPALFLDVSDQTPINSIIFSHEDGTRLGVEHLVALGHQQIALLAGPLSSVSARLRLAGWHKYLTRNQIQPIAEREGDWSAMSGFQQTMQMLNEGIVPTAMLVANDQMALGAMRAITESGLRVGADISVVGYDDTEDSSCYIPPLTTIKQDFRLLGQTSVDRLLQLSQGQAVKGNQLLPVSLVKRKTTLAPNTQTASPRALADSLMQLARQVSRLESGQ
Take B4: the “dose-response phenotype (in words)” value was “reduced G∞ but G0 and EC50 similar to the wild type”.

B5: pVER-IPTG-WT(S190C): LacI variant: S190C (protein, UniProt P03023 1-360, looked up, variant S190C)
Lactose operon repressor: MKPVTLYDVAEYAGVSYQTVSRVVNQASHVSAKTREKVEAAMAELNYIPNRVAQQLAGKQSLLIGVATSSLALHAPSQIVAAIKSRADQLGASVVVSMVERSGVEACKAAVHNLLAQRVSGLIINYPLDDQDAIAVEAACTNVPALFLDVSDQTPINSIIFSHEDGTRLGVEHLVALGHQQIALLAGPLCSVSARLRLAGWHKYLTRNQIQPIAEREGDWSAMSGFQQTMQMLNEGIVPTAMLVANDQMALGAMRAITESGLRVGADISVVGYDDTEDSSCYIPPLTTIKQDFRLLGQTSVDRLLQLSQGQAVKGNQLLPVSLVKRKTTLAPNTQTASPRALADSLMQLARQVSRLESGQ
In the case of B5, the “dose-response phenotype (in words)” value is listed as “silent in wild-type background”.

B6: pVER-IPTG-WT: wild-type LacI (lac repressor) on the pVER plasmid (protein, UniProt P03023 1-360, looked up)
Lactose operon repressor: MKPVTLYDVAEYAGVSYQTVSRVVNQASHVSAKTREKVEAAMAELNYIPNRVAQQLAGKQSLLIGVATSSLALHAPSQIVAAIKSRADQLGASVVVSMVERSGVEACKAAVHNLLAQRVSGLIINYPLDDQDAIAVEAACTNVPALFLDVSDQTPINSIIFSHEDGTRLGVEHLVALGHQQIALLAGPLSSVSARLRLAGWHKYLTRNQIQPIAEREGDWSAMSGFQQTMQMLNEGIVPTAMLVANDQMALGAMRAITESGLRVGADISVVGYDDTEDSSCYIPPLTTIKQDFRLLGQTSVDRLLQLSQGQAVKGNQLLPVSLVKRKTTLAPNTQTASPRALADSLMQLARQVSRLESGQ
Regarding B6, the “n: the Hill coefficient” value (Hill fit of cytometry data) was found to be 1.559. Also, where the note is “basal output”, the G0 is 158 MEF. The “log_g0: the base-10 logarithm of G0 (in MEF)” value under setting [1] stood at 2.097 MEF. Besides, the “log_ginf: the base-10 logarithm of G∞ (in MEF)” value under setting [2] worked out at 4.44 MEF.

B7: pVER-IPTG-WT(V271M): LacI variant: V271M (protein, UniProt P03023 1-360, looked up, variant V271M)
Lactose operon repressor: MKPVTLYDVAEYAGVSYQTVSRVVNQASHVSAKTREKVEAAMAELNYIPNRVAQQLAGKQSLLIGVATSSLALHAPSQIVAAIKSRADQLGASVVVSMVERSGVEACKAAVHNLLAQRVSGLIINYPLDDQDAIAVEAACTNVPALFLDVSDQTPINSIIFSHEDGTRLGVEHLVALGHQQIALLAGPLSSVSARLRLAGWHKYLTRNQIQPIAEREGDWSAMSGFQQTMQMLNEGIVPTAMLVANDQMALGAMRAITESGLRVGADISVMGYDDTEDSSCYIPPLTTIKQDFRLLGQTSVDRLLQLSQGQAVKGNQLLPVSLVKRKTTLAPNTQTASPRALADSLMQLARQVSRLESGQ
For the molecule B7, the “dose-response phenotype (in words)” value is “silent in wild-type background”.

B8: pVER-IPTG-WT(S279T/V136E): LacI variant: V136E S279T (protein, UniProt P03023 1-360, looked up, variant V136E S279T)
Lactose operon repressor: MKPVTLYDVAEYAGVSYQTVSRVVNQASHVSAKTREKVEAAMAELNYIPNRVAQQLAGKQSLLIGVATSSLALHAPSQIVAAIKSRADQLGASVVVSMVERSGVEACKAAVHNLLAQRVSGLIINYPLDDQDAIAEEAACTNVPALFLDVSDQTPINSIIFSHEDGTRLGVEHLVALGHQQIALLAGPLSSVSARLRLAGWHKYLTRNQIQPIAEREGDWSAMSGFQQTMQMLNEGIVPTAMLVANDQMALGAMRAITESGLRVGADISVVGYDDTEDTSCYIPPLTTIKQDFRLLGQTSVDRLLQLSQGQAVKGNQLLPVSLVKRKTTLAPNTQTASPRALADSLMQLARQVSRLESGQ
Take B8: the “dose-response phenotype (in words)” value was “more complicated non-monotonic dose-response (high-low-high-low)”.

B9: pVER-IPTG-WT(V136E/G200C): LacI variant: V136E G200C (protein, UniProt P03023 1-360, looked up, variant V136E G200C)
Lactose operon repressor: MKPVTLYDVAEYAGVSYQTVSRVVNQASHVSAKTREKVEAAMAELNYIPNRVAQQLAGKQSLLIGVATSSLALHAPSQIVAAIKSRADQLGASVVVSMVERSGVEACKAAVHNLLAQRVSGLIINYPLDDQDAIAEEAACTNVPALFLDVSDQTPINSIIFSHEDGTRLGVEHLVALGHQQIALLAGPLSSVSARLRLACWHKYLTRNQIQPIAEREGDWSAMSGFQQTMQMLNEGIVPTAMLVANDQMALGAMRAITESGLRVGADISVVGYDDTEDSSCYIPPLTTIKQDFRLLGQTSVDRLLQLSQGQAVKGNQLLPVSLVKRKTTLAPNTQTASPRALADSLMQLARQVSRLESGQ
Consider B9, for which the “dose-response phenotype (in words)” value is on record as “band-stop dose-response curve”. Where the note is “IPTG as ligand, Hill fit of cytometry data, posterior mean, read-out: log_ec50: the base-10 logarithm of EC50 (converted)”, the EC50 is 2480 nM. For the same molecule, the “n: the Hill coefficient” value (Hill fit of cytometry data) stood at 2.118. The “log_g0: the base-10 logarithm of G0 (in MEF)” value under setting [1] is on record as 3.294 MEF. Further, the “log_ginf: the base-10 logarithm of G∞ (in MEF)” value under setting [2] stood at 4.168 MEF.

B10: pVER-IPTG-WT(N208Y): LacI variant: N208Y (protein, UniProt P03023 1-360, looked up, variant N208Y)
Lactose operon repressor: MKPVTLYDVAEYAGVSYQTVSRVVNQASHVSAKTREKVEAAMAELNYIPNRVAQQLAGKQSLLIGVATSSLALHAPSQIVAAIKSRADQLGASVVVSMVERSGVEACKAAVHNLLAQRVSGLIINYPLDDQDAIAVEAACTNVPALFLDVSDQTPINSIIFSHEDGTRLGVEHLVALGHQQIALLAGPLSSVSARLRLAGWHKYLTRYQIQPIAEREGDWSAMSGFQQTMQMLNEGIVPTAMLVANDQMALGAMRAITESGLRVGADISVVGYDDTEDSSCYIPPLTTIKQDFRLLGQTSVDRLLQLSQGQAVKGNQLLPVSLVKRKTTLAPNTQTASPRALADSLMQLARQVSRLESGQ
As to B10, the “dose-response phenotype (in words)” value is given as “silent in wild-type background”.
